Test results published in paper PMC7326016, “Structural Studies of Glutamate Dehydrogenase (Isoform 1) From Arabidopsis thaliana, an Important Enzyme at the Branch-Point Between Carbon and Nitrogen Metabolism” (Frontiers in Plant Science, 2020).

Molecular target: the molecule itself
Assay: crystal structure; two crystal structures of AtGDH1 (apo, 2.59 Å; complex with NAD+, 2.03 Å; 2OG in one subunit of the latter); one homohexamer in the asymmetric unit, space group P212121; inter-subunit contacts analysed with PISA

B1: Glutamate dehydrogenase 1 from Arabidopsis thaliana (AtGDH1), homohexamer of α subunits (enzyme, A. thaliana, UniProt Q43314 1-411, looked up)
chain: MNALAATNRNFKLAARLLGLDSKLEKSLLIPFREIKVECTIPKDDGTLASFVGFRVQHDNARGPMKGGIRYHPEVDPDEVNALAQLMTWKTAVAKIPYGGAKGGIGCDPSKLSISELERLTRVFTQKIHDLIGIHTDVPAPDMGTGPQTMAWILDEYSKFHGYSPAVVTGKPIDLGGSLGRDAATGRGVMFGTEALLNEHGKTISGQRFVIQGFGNVGSWAAKLISEKGGKIVAVSDITGAIKNKDGIDIPALLKHTKEHRGVKGFDGADPIDPNSILVEDCDILVPAALGGVINRENANEIKAKFIIEAANHPTDPDADEILSKKGVVILPDIYANSGGVTVSYFEWVQNIQGFMWEEEKVNDELKTYMTRSFKDLKEMCKTHSCDLRMGAFTLGVNRVAQATILRGWGA
notes: Glutamate dehydrogenase 1 (AtGDH1, α subunit), Arabidopsis thaliana ecotype Col-0, locus At5g18170.1, UniProt Q43314; Cloned into pMCSG68; the His tag was cut off with TEV protease; also called glutamate dehydrogenase (isoform 1); source: E. coli BL21-Gold (DE3), purified (HisTrap, TEV cleavage, second HisTrap, Superdex 200 SEC)
stoichiometry N: 6
